{"source": "patent US20200165324A1", "binders": {"B1": {"name": "PGV04 (antibody, from a related filing, V domains shown)", "VH": "QVQLVQSGSGVKKPGASVRVSCWTSEDIFERTELIHWVRQAPGQGLEWIGWVKTVTGAVNFGSPDFRQRVSLTRDRDLFTAHMDIRGLTQGDTATYFCARQKFYTGGQGWYFDLWGRGTLIVVSS", "VL": "EIVLTQSPGTLSLSPGETASLSCTAASYGHMTWYQKKPGQPPKLLIFATSKRASGIPDRFSGSQFGKQYTLTITRMEPEDFARYYCQQLEFFGQGTRLEIR"}, "B2": {"name": "germline PG9 HC (NC-Cow1 VH CDR3) + mature PG9 LC (antibody)", "VH": "QVQLVESGGGVVQPGRSLRLSCAASGFTFSSYGMHWVRQAPGKGLEWVAVISYDGSNKYYADSVKGRFTISRDNSKNTLYLQMNSLRAEDTAVYYCITAHQKTNKKECPEDYTYNPRCPQQYGWSDCDCMGDRFGGYCRQDGCSNYIHRSTYEWYVSAWGKGTTVTVSS", "VL": "QSALTQPASVSGSPGQSITISCNGTSNDVGGYESVSWYQQHPGKAPKVVIYDVSKRPSGVSNRFSGSKSGNTASLTISGLQAEDEGDYYCKSLTSTRRRVFGTGTKLTVL"}, "B3": {"name": "NC-Cow1 (antibody)", "VH": "QVQLRESGPSLMKPSQTLSLTCTVSGSSLNDKSVGWVRQAPGKALQWLGSVDTSGNTDYNPGLKSRLSITKDNSKSRISLTVTGMTTEDSATYYCITAHQKTNKKECPEDYTYNPRCPQQYGWSDCDCMGDRFGGYCRQDGCSNYIHRSTYEWYVSAWGQGLLVTVSS", "VL": "SYELTQPSSVSGSLGQRVSVTCSGSSSNVGNGYVSWYQLIPGSAPRTIIYGDTSRASGVPERFSGSRSGNTATLTISSLQAEDEADFFCASPDDSSSNAVFGSGTTLTVL"}, "B4": {"name": "NC-Cow5 (antibody)", "VH": "QVQLQESGPSLVKPSQTLSLTCMVSGFSLNDKAVGWVRQAPGKALEWLGSIDAGGSTGYNPGLKSRLSISKDNSKNQVSLSVSSVTTEDSATYYCGTVHQRTQPKQTCPNGYSDDSALRYYSRCSDRDCWRCTGTTYYDTCQCSSYTYIHTYELYVDAWGQGLLVTVSS", "VL": "B3 VL with S1Q, Y2D, E3V, V20I, I48L, E61D, F87Y, D93E"}, "B5": {"name": "NC-Cow2 (antibody)", "VH": "KVQLRESGPSLVKPSQTLSLTCMVSGSSLSDKAVGWVRQAPGKALEWLGIISAGGNRGYNSGLRSRLTISKDNSKNEVSLRVRSVTTEDSATYFCGTVHQKTQRKPICPDGYSDDSTLRYYSRCSDRDCWRCTGTTYYDTCQCGTYTWIDTHELHVDAWGQGLLVTVSS", "VL": "B3 VL with S1Q, Y2A, E3V, T5N, V20I, I48L, E61D, F87Y, P92A, D93E"}, "B6": {"name": "NC-Cow7 (antibody)", "VH": "KVQLRESGPSLVKPFETLSLTCTGSGFSLSDKAAGWVRQAPGKAPEWLGSIDTGGNTGYNPGLKYRLSITKDNSKSQVSLSVSSMTSEDSATYYCTTVHQKAYKKVCPDDYSSNPDCVRLYGWSHCDCMRDSFGGWCRADGCSSTVEIGPYEWYVNAWGQGLLVTVSS", "VL": "B3 VL with S1Q, Y2A, E3V, V20I, T47S, I48L, E61D, F87Y, D93E, A99G"}, "B7": {"name": "NC-Cow4 (antibody)", "VH": "B4 VH with Q1K, Q5R, K32E", "VL": "B3 VL with S1Q, Y2A, E3V, V20I, I48L, E61D, F87Y, D93E"}}, "key": {"[1]": {"molecular_target": "gp120 (isolate 92BR020) (HIV-1 isolate 92BR020)", "assay": "ELISA on gp120 (isolate 92BR020), buffer pH 6"}, "[2]": {"molecular_target": "gp120 (isolate 92BR020) (HIV-1 isolate 92BR020)", "assay": "ELISA on gp120 (isolate 92BR020), buffer pH 5.5"}, "[3]": {"molecular_target": "Env of the 12-virus indicator panel", "assay": "cell-based or functional assay"}, "[4]": {"molecular_target": "Env of the 117-virus panel (117 cross-clade virus panel)", "assay": "cell-based or functional assay"}, "[5]": {"molecular_target": "stabilized BG505 SOSIP construct MD39 (HIV isolate BG505)", "assay": "competition ELISA on MD39 vs PG9"}, "[6]": {"molecular_target": "stabilized BG505 SOSIP construct MD39 (HIV isolate BG505)", "assay": "competition ELISA on MD39 vs b12"}, "[7]": {"molecular_target": "stabilized BG505 SOSIP construct MD39 (HIV isolate BG505)", "assay": "competition ELISA on MD39 vs Self"}, "[8]": {"molecular_target": "stabilized BG505 SOSIP construct MD39 (HIV isolate BG505)", "assay": "competition ELISA on MD39 vs 12A12"}, "[9]": {"molecular_target": "stabilized BG505 SOSIP construct MD39 (HIV isolate BG505)", "assay": "competition ELISA on MD39 vs 35022"}, "[10]": {"molecular_target": "stabilized BG505 SOSIP construct MD39 (HIV isolate BG505)", "assay": "competition ELISA on MD39 vs CH103"}, "[11]": {"molecular_target": "stabilized BG505 SOSIP construct MD39 (HIV isolate BG505)", "assay": "competition ELISA on MD39 vs VRC01"}, "[12]": {"molecular_target": "stabilized BG505 SOSIP construct MD39 (HIV isolate BG505)", "assay": "competition ELISA on MD39 vs PGT121"}, "[13]": {"molecular_target": "stabilized BG505 SOSIP construct MD39 (HIV isolate BG505)", "assay": "competition ELISA on MD39 vs PGT128"}, "[14]": {"molecular_target": "stabilized BG505 SOSIP construct MD39 (HIV isolate BG505)", "assay": "competition ELISA on MD39 vs PGT151"}, "[15]": {"molecular_target": "stabilized BG505 SOSIP construct MD39 (HIV isolate BG505)", "assay": "competition ELISA on MD39 vs 3BNC117"}, "[16]": {"molecular_target": "stabilized BG505 SOSIP construct MD39 (HIV isolate BG505)", "assay": "competition ELISA on MD39 vs PGDM1400"}}, "note": "Numbering of substitutions follows the chain as printed.", "data": [{"binder": "B1", "values": [{"measurement": "EC50 (read off the curve)", "setting": "[1]", "value": 0.2, "unit": "µg/mL"}, {"measurement": "EC50 (read off the curve)", "setting": "[2]", "value": 0.2, "unit": "µg/mL"}]}, {"binder": "B2", "values": [{"measurement": "median IC50 of neutralization on the 12-virus indicator panel", "setting": "[3]", "value": 0.054, "unit": "µg/mL"}, {"measurement": "neutralization breadth on the 12-virus indicator panel", "setting": "[3]", "value": 88, "unit": "%"}]}, {"binder": "B3", "values": [{"measurement": "IC50, pseudovirus neutralization", "setting": "BG505 D474A", "value": 9, "unit": "ng/mL"}, {"measurement": "IC50, pseudovirus neutralization", "setting": "BG505 N262A", "value": 0.014, "unit": "µg/mL"}, {"measurement": "IC50, pseudovirus neutralization", "setting": "BG505 N276A", "value": 0.011, "unit": "µg/mL"}, {"measurement": "IC50, pseudovirus neutralization", "setting": "JR-CSF D279A", "value": 1.02, "unit": "µg/mL"}, {"measurement": "IC50, pseudovirus neutralization", "setting": "JR-CSF D474A", "value": 0.744, "unit": "µg/mL"}, {"measurement": "IC50, pseudovirus neutralization", "setting": "JR-CSF K282A", "value": "> 50", "unit": "µg/mL"}, {"measurement": "IC50, pseudovirus neutralization", "setting": "JR-CSF M373A", "value": 2.52, "unit": "µg/mL"}, {"measurement": "IC50, pseudovirus neutralization", "setting": "JR-CSF P369A", "value": 1.24, "unit": "µg/mL"}, {"measurement": "IC50, pseudovirus neutralization", "setting": "JR-CSF V372A", "value": "> 50", "unit": "µg/mL"}, {"measurement": "median IC50 of neutralization on the 117-virus panel", "setting": "[4]", "value": 0.028, "unit": "µg/mL"}, {"measurement": "neutralization breadth on the 117-virus panel (pseudovirus, TZM-bl cells)", "setting": "[4]", "value": 72, "unit": "%"}, {"measurement": "median IC50 of neutralization on the 12-virus indicator panel", "setting": "[3]", "value": 0.007, "unit": "µg/mL"}, {"measurement": "neutralization breadth on the 12-virus indicator panel", "setting": "[3]", "value": 100, "unit": "%"}]}, {"binder": "B4", "values": [{"measurement": "competition value", "setting": "[5]", "value": 21}, {"measurement": "competition value", "setting": "[6]", "value": 23}, {"measurement": "competition value", "setting": "[7]", "value": 37}, {"measurement": "competition value", "setting": "[8]", "value": 95}, {"measurement": "competition value", "setting": "[9]", "value": 14}, {"measurement": "competition value", "setting": "[10]", "value": 38}, {"measurement": "competition value", "setting": "[11]", "value": 95}, {"measurement": "competition value", "setting": "[12]", "value": 21}, {"measurement": "competition value", "setting": "[13]", "value": 71}, {"measurement": "competition value", "setting": "[14]", "value": 2}, {"measurement": "competition value", "setting": "[15]", "value": 94}, {"measurement": "competition value", "setting": "[16]", "value": 3}]}, {"binder": "B5", "values": [{"measurement": "competition value", "setting": "[5]", "value": 4}, {"measurement": "competition value", "setting": "[6]", "value": 0}, {"measurement": "competition value", "setting": "[7]", "value": 91}, {"measurement": "competition value", "setting": "[8]", "value": 94}, {"measurement": "competition value", "setting": "[9]", "value": 11}, {"measurement": "competition value", "setting": "[10]", "value": 11}, {"measurement": "competition value", "setting": "[11]", "value": 93}, {"measurement": "competition value", "setting": "[12]", "value": 27}, {"measurement": "competition value", "setting": "[13]", "value": 57}, {"measurement": "competition value", "setting": "[14]", "value": 11}, {"measurement": "competition value", "setting": "[15]", "value": 93}, {"measurement": "competition value", "setting": "[16]", "value": 18}]}, {"binder": "B6", "values": [{"measurement": "competition value", "setting": "[5]", "value": 8}, {"measurement": "competition value", "setting": "[6]", "value": 9}, {"measurement": "competition value", "setting": "[7]", "value": 90}, {"measurement": "competition value", "setting": "[8]", "value": 92}, {"measurement": "competition value", "setting": "[9]", "value": 5}, {"measurement": "competition value", "setting": "[10]", "value": 35}, {"measurement": "competition value", "setting": "[11]", "value": 87}, {"measurement": "competition value", "setting": "[12]", "value": 23}, {"measurement": "competition value", "setting": "[13]", "value": 31}, {"measurement": "competition value", "setting": "[14]", "value": 20}, {"measurement": "competition value", "setting": "[15]", "value": 90}, {"measurement": "competition value", "setting": "[16]", "value": 12}]}, {"binder": "B7", "values": [{"measurement": "competition value", "setting": "[5]", "value": 7}, {"measurement": "competition value", "setting": "[6]", "value": 29}, {"measurement": "competition value", "setting": "[7]", "value": 84}, {"measurement": "competition value", "setting": "[8]", "value": 95}, {"measurement": "competition value", "setting": "[9]", "value": 18}, {"measurement": "competition value", "setting": "[10]", "value": 13}, {"measurement": "competition value", "setting": "[11]", "value": 94}, {"measurement": "competition value", "setting": "[12]", "value": -11}, {"measurement": "competition value", "setting": "[13]", "value": 35}, {"measurement": "competition value", "setting": "[14]", "value": 20}, {"measurement": "competition value", "setting": "[15]", "value": 95}, {"measurement": "competition value", "setting": "[16]", "value": 22}]}]}
